Results on six molecules are retold here after US20250313627A1 (FUSE BIOTHERAPEUTICS, published 2025).

The target of assay [1] is T1, human ROR1 (Receptor Tyrosine Kinase-Like Orphan Receptor 1) on the cell surface (human, UniProt Q01973 30-937).
T1 construct: whole, on cells; engineered into B16-F10 (high density) and LS174T (low density) cells; also called B16-F10-ROR1-H; LS174T-ROR1-L
The assay is described as follows: flow cytometry, B16-F10 cells expressing human ROR1 (high density). On the procedure:
(§1) As shown in the tables below, mouse B16-F10 melanoma (Tables 9A-9F) or LS174T human colorectal adenocarcinoma (Tables 9G-9H) cells genetically engineered to express human ROR1 at high and low densities, respectively, were stained for flow cytometric analysis with 100 nM of humanized variants of the ROR1 specific VHHs, 5A1 or 2A11 in either a VHH-Fc format or the Ac13 format shown in FIG. 1. Cells were analyzed on a flow cytometer after the primary test article was fluorescently tagged with a goat anti human IgG-Fc specific PE secondary antibody. The positive control used was PE conjugated anti-human ROR1 clone 2A2. Negative controls included a PE labeled mouse IgG Ab, the secondary antibody only, the combination of a Hen Egg Lysozyme (HEL) specific antibody plus goat anti human IgG-Fc specific PE and Fluorescence Minus One (FMO). Other controls included the non-humanized version of 5A1-Fc (FUSE179), 2A11-Fc (FUSE112) and 5A1-Ac13 (FUSE488). Humanized variants were generated using computational design (FUSE489, FUSE497-498, FUSE563, FUSE569-570, and BI-HU9-VHH11-33), a yeast display library in which mutations were inserted into the Vernier zone residues of human framework indicated in GenBank accession number M99660 (FUSE524-525, FUSE589, FUSE597-598, FUSE537, FUSE661-662, BI-HU9-HK and BI-HU9-HK-1), and a second yeast display library in which mutations were inserted into the Vernier zone residues of human framework indicated in GenBank accession number AWH66715 and amino acid position 103 within CDR3 (FUSE559, FUSE590-596, BI-HU9-VH9-1, FUSE654-655 and FUSE661-662. Affinity matured variants of FUSE559 were also generated using computational design (F22158101-21; Table 9H).

Assay [2] addresses T1, human ROR1 (Receptor Tyrosine …). Described as above. On the procedure: as §1
This is another data set of the same source.

Assay [3] has the same target. Described as above. As to the method:
as §1
This is another data set of the same source.

The target is the same in assay [4]. The assay can be described thus: flow cytometry on B16-F10 cells engineered to express human ROR1, secondary antibody to the IgG1 Fc. On the procedure: As shown in FIG. 15 the apparent binding affinity (EC50-binding) of the ROR1 specific VHH-Fc incorporating either the non humanized VHH clone 5A1 (FUSE179; black circle), the humanized clone 5A1-FA9-HK1 (FUSE559; black square) or the humanized clone 5A1-HK1 (FUSE524; black triangle) was calculated. Shown is a non-linear x-y plot of binding to B16-F10 cell engineered to express human ROR1 relative to the concentration of test article used for staining. A Hen Egg Lysozyme (HEL)-specific antibody was used as the negative isotype control. Binding was measured via flow cytometry using a fluorescently labeled secondary antibody specific for the Fc domain of IgG1. A summary table of EC50s and maximum MFI is shown beneath under the graph.

Substitutions are numbered along the chain they refer to. Like-named read-outs stand apart in the source and are kept apart here.

T1 sequence (Q01973 30-937): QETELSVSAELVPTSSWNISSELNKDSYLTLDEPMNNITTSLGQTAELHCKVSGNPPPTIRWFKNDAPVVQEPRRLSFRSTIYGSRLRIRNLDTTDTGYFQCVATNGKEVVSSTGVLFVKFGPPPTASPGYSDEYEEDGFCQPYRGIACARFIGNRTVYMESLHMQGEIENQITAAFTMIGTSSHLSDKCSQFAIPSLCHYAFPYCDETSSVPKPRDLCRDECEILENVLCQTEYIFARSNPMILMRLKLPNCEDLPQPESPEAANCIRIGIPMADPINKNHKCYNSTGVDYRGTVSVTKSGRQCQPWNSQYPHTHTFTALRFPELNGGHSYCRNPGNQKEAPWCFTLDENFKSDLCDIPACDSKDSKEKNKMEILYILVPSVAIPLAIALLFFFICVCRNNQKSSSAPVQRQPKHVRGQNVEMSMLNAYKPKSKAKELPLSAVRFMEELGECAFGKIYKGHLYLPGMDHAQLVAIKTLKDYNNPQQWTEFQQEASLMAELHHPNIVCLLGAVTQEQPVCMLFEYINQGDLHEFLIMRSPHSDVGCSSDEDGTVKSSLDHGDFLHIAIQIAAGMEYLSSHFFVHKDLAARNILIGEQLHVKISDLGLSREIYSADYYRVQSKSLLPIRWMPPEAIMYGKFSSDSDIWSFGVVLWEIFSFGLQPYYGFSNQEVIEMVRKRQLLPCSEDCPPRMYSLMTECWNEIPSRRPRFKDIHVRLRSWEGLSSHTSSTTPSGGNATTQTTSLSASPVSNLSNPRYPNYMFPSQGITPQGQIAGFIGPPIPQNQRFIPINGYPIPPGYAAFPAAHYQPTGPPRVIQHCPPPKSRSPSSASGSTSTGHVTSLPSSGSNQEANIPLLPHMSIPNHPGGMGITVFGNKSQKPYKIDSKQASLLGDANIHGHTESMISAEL

B1: FUSE-570 (h5A1-FA18 Fc) (Fc fusion)
chain: QVQLVESGGGLVQPGGSLRLSCSASGYTNRLKCMGWFRQAPGKEREEIATISSGTGNTYYADSVKGRFTFSRDNSKNTLYLQMNSLRAEDTGMYYCAADVRPDGTTCHYNSGGQGTQVTVSS
notes: VHH-Fc format; not shown: Fc of the VHH-Fc format
Take B1: the MFI in assay [1] is 583.

B2: FUSE-563 (h5A1-FA11 Fc) (Fc fusion)
chain: EVQLLESGGGLVQPGGSLKLSCTASGYTNRLKCMGWFRQAPGKEREEIATISTGTGNTYYADSVKGRFTISQDRSKNTLYLQMNSLRAEDTAVYYCAADVRPDGTTCHYNSWGQGTLVTVSS
notes: as for B1
As to B2, in assay [1], the MFI stood at 388.

B3: FUSE-597 (h5A1-HK2 Fc) (Fc fusion)
chain: EVQLLESGGGLVQPGGSLRLSCAASGYTNRLKCMGWFRQAPGKERELASISTGTGNTYYADSVKGRFTISRDGSKNTLYLQMNSLRAEDTAVYYCAADVRPDGTTCHYNSRGQGTLVTVSS
notes: as for B1
Regarding B3, the MFI in assay [2] is 10100.

B4: FUSE-524 (h5A1-HK1_Fc) (Fc fusion)
chain: B3 chain with G73N, R86K
notes: VHH-Fc format; also called humanized clone 5A1-HK1; 5A1-H1; not shown: Fc of the VHH-Fc format
On to B4, for which, in assay [3], the MFI came to 6470. In addition, in assay [4], the EC50 came out at 2.74 nM and the “Max MFI” value is 7080 MFI.

B5: FUSE-569 (h5A1-FA17 Fc) (Fc fusion)
chain: B3 chain with E1Q, L5V, A23S, G73N, E88D, R111W, L116Q
notes: as for B1
On to B5, for which the MFI in assay [1] is 590.

B6: FUSE-598 (h5A1-HK6 Fc) (Fc fusion)
chain: B3 chain with R71Q
notes: as for B1
As to B6, in assay [2], the MFI is 9560.
